This is an account of results in publication PMC5104691, “Crystal Structure of the Neuropilin-1 MAM Domain: Completing the Neuropilin-1 Ectodomain Picture” (Structure(London, England:1993), 2016).

A value given as a limit tells only on which side of the number the result lay.

This series concerns the molecule itself. The experiment in a line: ITC; dissociation by dilution: 900 μM MAM domain in the syringe titrated into buffer (20 mM Tris pH 8.0, 100 mM NaCl), one 0.4 μL and 19 injections of 2 μL, at 15°C and 20°C; dimer or oligomer to monomers.

B1: MAM domain of human neuropilin-1 (residues 628-813), wild-type glycosylated (domain or fragment, UniProt O14786 628-813, looked up)
chain: ATEKPTVIDSTIQSEFPTYGFNCEFGWGSHKTFCHWEHDNHVQLKWSVLTSKTGPIQDHTGDGNFIYSQADENQKGKVARLVSPVVYSQNSAHCMTFWYHMSGSHVGTLRVKLRYQKPEEYDQLVWMAIGHQGDHWKEGRVLLHKSLKLYQVIFEGEIGKGNLGGIAVDDISINNHISQEDCAKPA
modifications: glycosylated at serine and threonine residues upstream of the predicted MAM domain (O-linked glycosylation sites)
notes: Neuropilin-1 (NRP1), human, amino acid residues 628-813 (linker region and MAM/c domain); also called NRP1 MAM domain; NRP1 MAM; source: FreeStyle HEK293-F cells, transfected, secreted
By Kd is commonly meant the equilibrium constant for the complex coming apart. A low value points to tighter binding. The protein B1 displayed a Kd greater than 900 µM.
